Paper PMC3589417

Biological target: 14-3-3ε (UniProt P62258)
Assay: anti-FLAG co-IP of HA-TAK1, immunoblot
Settings: reference: wild type

UniProt P62258, sequence (P62258 whole entry, looked up): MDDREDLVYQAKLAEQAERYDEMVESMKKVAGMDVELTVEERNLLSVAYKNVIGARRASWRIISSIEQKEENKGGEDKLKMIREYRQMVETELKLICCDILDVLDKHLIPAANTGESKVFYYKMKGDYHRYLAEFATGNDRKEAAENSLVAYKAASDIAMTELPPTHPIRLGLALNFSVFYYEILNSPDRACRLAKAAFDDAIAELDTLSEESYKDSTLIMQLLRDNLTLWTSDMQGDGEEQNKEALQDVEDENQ

## TAK1 (MAP3K7) (from UniProt O43318-2) S192A
Sites S192
  binding against the reference: weaker

## TAK1 (MAP3K7) (from UniProt O43318-2) T184A
Sites T184
  binding against the reference: weaker

## TAK1 (MAP3K7) (from UniProt O43318-2) T187A
Sites T187
  binding against the reference: weaker
